T1: Ccl1 (yeast, UniProt P37366 1-393)
T1 sequence: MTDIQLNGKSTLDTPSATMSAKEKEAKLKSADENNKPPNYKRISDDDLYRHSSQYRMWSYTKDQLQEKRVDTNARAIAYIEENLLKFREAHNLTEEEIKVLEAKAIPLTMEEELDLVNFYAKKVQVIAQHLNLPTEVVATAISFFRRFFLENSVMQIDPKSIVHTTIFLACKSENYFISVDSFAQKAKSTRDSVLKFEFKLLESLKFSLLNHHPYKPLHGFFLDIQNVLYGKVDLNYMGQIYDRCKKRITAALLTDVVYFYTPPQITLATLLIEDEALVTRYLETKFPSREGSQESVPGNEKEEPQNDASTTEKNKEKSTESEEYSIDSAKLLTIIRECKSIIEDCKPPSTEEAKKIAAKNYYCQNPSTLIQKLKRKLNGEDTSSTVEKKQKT

B1: Kin28 (enzyme)
chain: MKVNMEYTKEKKVGEGTYAVVYLGCQHSTGRKIAIKEIKTSEFKDGLDMSAIREVKYLQEMQHPNVIELIDIFMAYDNLNLVLEFLPTDLEVVIKDKSILFTPADIKAWMLMTLRGVYHCHRNFILHRDLKPNNLLFSPDGQIKVADFGLARAIPAPHEILTSNVVTRWYRAPELLFGAKHYTSAIDIWSVGVIFAELMLRIPYLPGQNDVDQMEVTFRALGTPTDRDWPEVSSFMTYNKLQIYPPPSRDELRKRFIAASEYALDFMCGMLTMNPQKRWTAVQCLESDYFKELPPPSDPSSIKIRN
modifications: phosphothreonine at 162 (pT162)
B2: Tfb3 (natural protein)
chain: MLMDEYEENKDMCPICKTDRYLSPDVKFLVNPECYHRICESCVDRIFSLGPAQCPYKGCDKILRKNKFKTQIFDDVEVEKEVDIRKRVFNVFNKTIDDFNGDLVEYNKYLEEVEDIIYKLDHGIDVAKTEEKLRTYEELNKQLIMNNLERSRTEIESFEQRQKFEKEMKLKKRLLERQIEEEERMNKEWTKKEIVNRLSTTTQDINETIEGVKNTVKLKKSSARRKLEELNRVLKNNPYFNSNVNVQNSRLKDAVPFTPFNGDREAHPRFTLKGSVYNDPFIKDLEHRKEFIASGFNTNYAYERVLTEAFMGLGCVISEEL

For one test, the target named is T1, Ccl1. The experiment in a line: cryo-EM structure.
The target in the test “Tfb3” is B2. The experiment in a line: cryo-EM structure.

With B1, the binding result with Ccl1 and with Tfb3 was “binds” throughout.
With B2, the binding result with Ccl1 is recorded as “binds”.

Values taken from publication PMC8026125 (Science Advances, 2021).
